Measured values published in the supplement of paper PMC12764529.
± gives the half width of the 95% confidence interval.

Key:
[1] = folding stability dG unfold from trypsin proteolysis; higher = more stable
Outline: (§1)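 Only designs with AlphaFold2 dimer inter-PAE above 15 were retained; each was a mini-protein under 80 residues with no cysteine, in a PA-tagged cDNA display construct. After digestion with trypsin and chymotrypsin and sequencing, K50 was inferred by Bayesian fitting of counts, and unfolding free energy was derived per protease or combined against a sequence-predicted unfolded-state K50 and a shared folded-state K50.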

[2] = folding stability dG unfold from chymotrypsin proteolysis; higher = more stable
Outline: as §1

[3] = folding stability dG unfold (combined trypsin and chymotrypsin); higher = more stable
Outline: as §1

Sequence | folding stability dG unfold [1] [kcal/mol] | folding stability dG unfold [2] [kcal/mol] | folding stability dG unfold [3] [kcal/mol]
SAGRKIEIHVPYDELRELFGPGQTAEDLADWIAQEGYQIEDIEVEPEPNPNNGKKYYRVTFEVKPPKKSAGG [r19_376_TrROS] | 0.345 ± 0.054 | 1.28 ± 0.12 | 0.95 ± 0.11
SAGSIEIYIIYPPEDPDQPPTEEEIRSIARSLARQLGLPPKDFPIDVEWRRIDPEDGIYVYEITIEFPSAGG [r19_244_TrROS] | 2.74 ± 0.059 | 3.57 ± 0.062 | 3.27 ± 0.1
SAGSIPEEIAKELGLPDLKVLKVETKPLPNGPLNIKIIELELPGGFKIKVTVVEEPEKIIIKTEPVPLSAGG [r19_392_JUSTAS] | 0.966 ± 0.034 | 0.64 ± 0.18 | 0.968 ± 0.27
SAGSKTISISVPGNWNIEELKAFLSTLPDNVTVYIFYPNKVYVGTVDKKNINLSADSSYDGFKVLVVVPSAG [r5_373_TrMRF] | 2 ± 0.06 | 3.12 ± 0.028 | 2.84 ± 0.083
SAGSKTITLEFNFEELKVKVTVTYDPEGEPTVTVTTTIYAKGGEKLETKTTTVTASPDDPVVKAFLESSSAG [r5_964_JUSTAS] | 2.19 ± 0.041 | 3.16 ± 0.084 | 2.77 ± 0.074
SAGSLEKVTESSTSSDKVEVTTTTLTPLSNPSVPVQYVKTTTTTTLIDPATGKTLSTTTTTTTTPLPAASAG [r5_300_JUSTAS] | -0.0274 ± 0.047 | 0.0998 ± 0.19 | 0.053 ± 0.19
SAGSLKPGDLLYVRIYVYNPDGELLGEIDELVETEEEAERRLRELAREIEERLGRNVRVLAEIYRYPRLSAG [r5_232_TrMRF] | 3.36 ± 0.088 | 4.559 ± 0.024 | 4.19 ± 0.1
SAGSLKPSDLVLLRSRPVRVGGKPVVLVDLVVFHPDGSASRAVLTLPSGVGPPVVGVVPVPALVRLIASSAG [r5_831_TrMRF] | 1.53 ± 0.047 | 2.14 ± 0.084 | 1.95 ± 0.12
SAGSMHLVEFTGTEEVVDEFLASLPPEVVVERERYPDRWLVRLPPDVPARTITVPTPDGRPVTFTLRLESAG [r5_123_JUSTAS] | -0.851 ± 0.41 | -0.346 ± 0.31 | -0.487 ± 0.21
SAGSMKTVVRVEKEVDPSTGKITITEEIEDKVYTTTMDLNPETGDATSTVTYPDSTIGTTTVPISSISSSAG [r5_415_JUSTAS] | -0.155 ± 0.024 | 0.706 ± 0.052 | 0.432 ± 0.067
SAGSMLFDPNGVLREVSVTPDPSTGTTVTTTLVQWPVDDGNGNSVLERITTTTSPSGTVTTSTEVRPAPSAG [r5_303_JUSTAS] | 0.182 ± 0.027 | 0.0881 ± 0.034 | 0.138 ± 0.085
SAGSMPPSTTTSEEVTVGGKKVKRTTTVYRAPNGTPSVTSTYTLGETPGVEDPLSGKALTPEERAAAAASAG [r5_138_JUSTAS] | 0.417 ± 0.21 | 0.564 ± 0.28 | 0.668 ± 0.16
SAGSMSSVKKVKITTTSYDPTNGAKKETSYDVTVTTTTYPATGEITRTIYFTSTGKWKVEHLPPGAPLASAG [r14_587_JUSTAS] | 1.48 ± 0.066 | 2.15 ± 0.12 | 1.97 ± 0.14
SAGSNKKITAEELAKLLEEKFKEKFPDAEIKVHAHAEPRPDDKLIIHVHFEIYRKKPKIGEFDVVIEFESAG [r5_696_TrMRF] | 1.55 ± 0.085 | 2.76 ± 0.043 | 2.38 ± 0.13
SAGSPETVTLPLTVTLPPGVPLSQIEAVLKKNGFTELEITASPTPDGTLRYAIDATMPVSVVEKLIKALSAG [r5_376_JUSTAS] | 1.8 ± 0.035 | 2.24 ± 0.042 | 2.08 ± 0.059
SAGSPLYEVKSEEVLPGPGGEPMRVTVVELPGGEILTFVESPDGLLEIRYIPAETGKFEKTEKVPRDLLSAG [r5_750_JUSTAS] | 0.445 ± 0.06 | 0.802 ± 0.087 | 0.618 ± 0.15
SAGSPPDDVREEETEEVVPSPDGSLTVTRTPVVRRPGEEEEVRTETTVYFPPSDETLTSESLTRFPGASAGG [r19_387_JUSTAS] | 0.356 ± 0.049 | 0.895 ± 0.051 | 0.695 ± 0.095
SAGSSPEEIAERLREEAERTEKLPDGSEVRVSVSVDVEVLPNGTVRLTIPRSYPETGVVTTETVTIPVASAG [r5_397_JUSTAS] | 0.0542 ± 0.11 | -0.579 ± 0.33 | -0.194 ± 0.16

Sequence | folding stability dG unfold [1] [kcal/mol] | folding stability dG unfold [2] [kcal/mol] | folding stability dG unfold [3] [kcal/mol]
SAGSSSSLPNVLVVTLYLPDAPLPIVLPVDTPEDVELAKERVKEIEKELEELGLPVNVEFKYYPPGFPVSAG [r5_823_TrMRF] | 0.497 ± 0.065 | -1.16 ± 0.84 | 0.194 ± 0.18
SAGSSSVTLFPEYTITTTTLPDGSRSVTINFTNPEEAKKLFEENPEIKELIEKFKKEGWDVKINAKNPSSAG [r14_873_JUSTAS] | 2.98 ± 0.21 | 3.95 ± 0.17 | 3.67 ± 0.22
SAGSSTTETFTHPDGSVVTVTEEELPDGSYRVTSVSYEATPDGTVSALLRKPDGTIITVDSLEELFALESAG [r5_618_JUSTAS] | 0.965 ± 0.025 | 1.51 ± 0.076 | 1.34 ± 0.083
SAGSVEIKESSLPDSTIITITIPYTSPEEAPERIERLLKELGLSENVQVIEVKYEPSPPVVTVKIKIESAGG [r19_186_JUSTAS] | 2.41 ± 0.077 | 3.21 ± 0.09 | 2.99 ± 0.12
SAGSVETFEDPEVGRVVIVPLPGGEVLTIELPPDSITMTLTSPKGGESVTITKKMKPGEEEELIKELASSAG [r5_820_JUSTAS] | -0.521 ± 0.47 | -0.603 ± 0.45 | -0.358 ± 0.3
SAGSVEVSVSGNEIHITAPEGISLEELIELIKKLFPGADIGEVSVEKLPDGRYVATFKAGFKPPSPDELSAG [r5_110_TrMRF] | 4.41 ± 0.25 | 4.29 ± 0.14 | 4.34 ± 0.12
SAGSVTITLNIPPGQDVTLNIGGKEATLTVDPETKVYTMTDPQTGDVWTVTVDPNSPVASVTYTAAPAGSAG [r5_302_JUSTAS] | 0.996 ± 0.039 | 1.57 ± 0.15 | 1.37 ± 0.11
SAGSVTVTETKTEGDKETITMTRPETGETVEEKITKKNGKVKVTKTYYSPSGVKLGSSEKVLSESELLLSAG [r5_308_JUSTAS] | -0.0129 ± 0.18 | -0.195 ± 0.33 | -0.0136 ± 0.26
SAGTAKELAELLPGATVEVDEETGTVTVTVELDGYTVRIEIRVDPETGEIVEIRITVTNPDGEEREFELSAG [r5_367_TrROS_Hall] | 3.01 ± 0.077 | 2.92 ± 0.096 | 2.94 ± 0.062
SAGTELELEAEAEVLFPELGTRARVRVRARVRPTEDEVEVELEVEAEFEPLPLVPPIVSPEENPELAEGSAG [r14_435_TrMRF] | 3.19 ± 0.12 | 2.7 ± 0.14 | 3.08 ± 0.17
SAGTIHFMVPRDEMSDEEAEDIVNTIAKHFPGFKIDRIYWHKQPDPDGDPRRMYHVEIKIKIPLPPGMKSAG [r5_835_TrROS] | 1.29 ± 0.022 | 2.41 ± 0.06 | 2.06 ± 0.059
SAGTIRLNGLELEVDIEWWPEHGYITINVTITWPNGRTMMMQIIIKVKPVKPPPPPPPKYDPDNGKPKASAG [r5_816_TrROS] | 2.97 ± 0.1 | 4.38 ± 0.25 | 3.68 ± 0.34
SAGTIVFSRDELKELGIPEDMTVEEIKQKILDRLKEEGYEVKITKIEVVEVDEEEGRVLVRITIEVKKPSAG [r5_23_TrROS_Hall] | 3.69 ± 0.14 | 4.28 ± 0.13 | 4.17 ± 0.13
SAGTLVLVIEVPLEDVTPEQAEEIAEEAARFLREAGLPEGIEVEDVRVERLPDGRLLVLLPMRILEDESAGG [r19_87_TrMRF] | 1.97 ± 0.056 | 2.59 ± 0.059 | 2.41 ± 0.14
SAGTVRLEVTVVIKLTKEQIENLPKDVKLEDGAEIEEKDDYLVIKRTIELPPPVVTDKDGKKLPLEELSAGG [r19_148_TrROS_Hall] | 0.23 ± 0.17 | 1.4 ± 0.087 | 0.938 ± 0.32
SAGTVTIGIWIPADDIEQIKELIRSIAEEHGWEVKVDKIEPNPDGQYFVTVTVENPENGKEIKITIWIPSAG [r5_41_TrROS] | 2.98 ± 0.056 | 3.39 ± 0.044 | 3.25 ± 0.11
SAGVDGVKWNPESNEVSVEYEVNNQRVEQYIEPKPIPPVIVIPIDDIAERNPGLKDDLDENPGDWLVFPSAG [r5_958_TrROS] | 0.79 ± 0.077 | -0.332 ± 0.089 | 0.415 ± 0.09
SAGWFISIKYKDPPTGRKRKISIPIPPGDPWLKELGFPSLDGLAKWLAPEMREEGHDVKDVKVEIMPPKSAG [r5_722_TrROS] | 3.38 ± 0.19 | 4.16 ± 0.059 | 3.75 ± 0.16
